{"source": "patent US20230112794A1", "about": "(NATIONAL TAIWAN UNIVERSITY, published 2023)", "binders": {"B1": {"name": "C14 monoclonal antibody (C14mab) (antibody, IgG1, V domains shown)", "VH": "EVNLEESGGGLVQPGGSMQLSCAASGFTFSDAWMDWVRQSPEKGLEWVAEVRTKGYYPVTFYAESVKGRFTISRDDSKSSVYLQMNSLRAEDTGIYYCTRPHYGYGYFDVWGAGTTVTVSS", "VL": "not shown", "notes": "Early experiments used the C14 hybridoma culture supernatant; also called C14 clone"}}, "key": {"[1]": {"target": "T1, recombinant human Hyper-IL-6 (HyIL-6), fusion of human sIL-6Rα and human IL-6 (human)", "T1 construct": "also called human IL-6Rα/IL-6 chimera; fusion protein of sIL-6Rα/IL-6", "test": "BLI (Octet), KD on HyIL-6 against KD on IL-6", "description": "(§1) FIG. 5 illustrates the binding kinetics of C14mab. Biolayer interferometry analysis of the binding of C14mab to IL-6 (a) and HyIL-6 (b) was carried out. […] Kinetic parameters were evaluated by using a 1:1 binding model with global fitting. The experimental curves of each concentration (solid line) are shown alongside the fitted curves (dashedline). One representative set of curves is shown from three independent experiments.\n(§2) Octet is based on Bio-Layer Interferometry (BLI) for measuring protein-protein interactions. BLI analyzes the interference pattern of white light reflected from two surfaces: a layer of immobilized protein on the biosensor tip and an internal reference layer. The binding between C14mab immobilized on the biosensor tip surface using Biosensor AMC tips (ForteBio, Pall Corporation) and IL-6 (R&D systems) and HyIL-6 (R&D systems) in complex was measured. Interference patterns for the binding to or dissociating from the biosensor were measured in real time to generate a response profile on the Octet® System Octet 96 Red (ForteBio, Pall Corporation). Kinetic parameters were evaluated by using a 1:1 binding model with global fitting of three independent experiments with the Octet Red analysis software."}, "[2]": {"target": "T1, recombinant human Hyper-IL-6 (HyIL-6), …", "test": "indirect ELISA, EC50 on HyIL-6 against EC50 on IL-6", "description": "(§3) FIG. 4 illustrates the binding characteristics of purified C14mab. (a) The microplates were coated with human IL-6 (20 ng/well), HyIL-6 (60 ng/well), and IL-6 Ra (40 ng/well). Serial dilutions of C14mab were added for 1 hr at room temperature. The binding ELISA data is graphed with OD₄₅₀ readings and their associated binding percentages vs. log antibody concentration. Data are compiled from three independent experiments. Values represent the mean±SEM. (b) Data were normalized to maximum signal for IL-6 and HyIL-6 individually. EC₅₀ values were obtained by nonlinear regression fitting to a variable slope, four-parameter dose-response model using the GraphPad Prism software (San Diego, Calif., USA). (c) The binding of mouse HyIL-6 (60 ng/well) with C14mab was measured by ELISA as described in (a). Values represent the mean±SEM from three independent experiments."}, "recombinant human IL-6 [3]": {"target": "T2, recombinant human IL-6 (human, UniProt P05231 30-212)", "T2 construct": "Bought protein (R&D systems); also called Interleukin-6", "test": "indirect ELISA, IL-6 coated at 20 ng/well, four-parameter fit; coated IL-6", "description": "as §3"}, "[4]": {"target": "T1, recombinant human Hyper-IL-6 (HyIL-6), …", "test": "indirect ELISA, HyIL-6 coated at 60 ng/well, four-parameter fit; coated human HyIL-6", "description": "as §3"}, "[5]": {"target": "T3, IL-6Rα (soluble IL-6 receptor alpha, R&D systems) (human, UniProt P08887 20-358)", "T3 construct": "also called IL-6 Ra; sIL-6Rα", "T3 sequence (looked up)": "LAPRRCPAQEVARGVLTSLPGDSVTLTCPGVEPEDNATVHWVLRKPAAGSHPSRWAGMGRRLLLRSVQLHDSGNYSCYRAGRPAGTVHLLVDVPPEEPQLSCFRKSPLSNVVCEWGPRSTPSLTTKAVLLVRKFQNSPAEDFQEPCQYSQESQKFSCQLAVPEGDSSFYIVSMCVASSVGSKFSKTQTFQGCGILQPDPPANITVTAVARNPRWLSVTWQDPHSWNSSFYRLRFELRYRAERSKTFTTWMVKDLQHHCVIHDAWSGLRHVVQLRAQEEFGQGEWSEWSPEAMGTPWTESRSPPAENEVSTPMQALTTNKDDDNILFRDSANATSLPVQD", "test": "ELISA, coated IL-6Rα (40 ng/well), serial dilution of purified C14mab [a]", "description": "as §3"}, "recombinant human IL-6 [6]": {"target": "T2, recombinant human IL-6", "test": "BLI (Octet), C14mab on anti-mouse Fc capture sensor, IL-6 1.56-25 nM, 1:1 global fit", "description": "as §1, §2"}, "[7]": {"target": "T1, recombinant human Hyper-IL-6 (HyIL-6), …", "test": "BLI (Octet), C14mab on anti-mouse Fc capture sensor, HyIL-6 1.56-25 nM, 1:1 global fit", "description": "as §1, §2"}, "[8]": {"target": "T4, mouse HyIL-6 (mouse IL-6/IL-6Rα complex, R&D systems) (mouse, UniProt P22272 20-357; P08505 25-211, limits assumed)", "T4 construct": "not shown: linker, if any, is not described for the bought mouse protein", "T4 sequence (chain (part 1 of 2), looked up)": "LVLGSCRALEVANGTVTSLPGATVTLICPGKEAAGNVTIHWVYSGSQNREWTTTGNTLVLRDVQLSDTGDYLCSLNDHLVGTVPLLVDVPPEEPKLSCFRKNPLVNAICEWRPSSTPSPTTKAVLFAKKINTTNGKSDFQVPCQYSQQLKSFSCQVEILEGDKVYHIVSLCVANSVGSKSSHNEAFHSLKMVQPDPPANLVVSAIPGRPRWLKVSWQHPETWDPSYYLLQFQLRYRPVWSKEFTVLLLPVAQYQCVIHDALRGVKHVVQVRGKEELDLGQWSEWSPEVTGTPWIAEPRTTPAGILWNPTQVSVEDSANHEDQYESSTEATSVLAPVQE", "T4 sequence (chain (part 2 of 2), looked up)": "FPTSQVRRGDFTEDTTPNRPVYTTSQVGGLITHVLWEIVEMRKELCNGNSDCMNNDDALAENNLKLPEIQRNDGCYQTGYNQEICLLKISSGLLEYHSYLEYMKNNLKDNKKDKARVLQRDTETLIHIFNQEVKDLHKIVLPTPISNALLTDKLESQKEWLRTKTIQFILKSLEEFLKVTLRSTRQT", "test": "ELISA, coated mouse HyIL-6 (60 ng/well), serial dilution of purified C14mab [c]", "description": "as §3"}, "[9]": {"target": "T5, IL-6/IL-6Rα complex (IL-6 bound to sIL-6Rα, not fused) (human, UniProt P08887 20-358; P05231 30-212)", "T5 construct": "Non-covalent complex; also called IL-6/sIL-6Rα combination; IL-6/sIL-6R combination", "test": "ELISA, coated sIL-6Rα (50 ng/well), IL-6 (10 ng/well) added, C14mab added without washing off unbound IL-6 [b]", "description": "FIG. 8 illustrates the epitope of HyIL-6/C14mab interaction. (a) Differential HDX of HyIL-6 upon C14mab binding. […] (b) A scheme depicts the assay procedure (left panel). The microplates were coated with sIL-6 Rα (50 ng/well) in PBS buffer at 4° C. overnight and blocked with 1% BSA in PBS for 1 hr. Then plates were washed with PBS containing 0.05% Tween-20. Upper; without washing group, IL-6 (10 ng/well) was added for 1 hr at room temperature. Then serial dilution concentrations of C14mab were added directly for another 2 hrs. Lower; washing group, IL-6 (10 ng/well) was added for 1 hr at room temperature. After plates were washed with PBS containing 0.05% Tween-20, serial dilution concentrations of C14mab were added directly for another 1 hr. The bound C14mab was determined by ELISA. The binding results with or without washing before C14mab incubation are shown in blue and red, respectively (right panel). One representative assay of 3 is shown.\nTo further understand the C14mab binding mechanism in HyIL-6, we performed an indirect ELISA assay using C14mab as a detection antibody. Briefly, IL-6Rα was immobilized directly on the plate and then IL-6 was added to the IL-6Rα and allowed to bind. The unbound IL-6 was washed away and the IL-6/IL-6Rα complex was detected by C14mab (FIG. 8(b))."}}}
{"binder": "B1", "values": [{"measurement": "fold binding strength against IL-6", "setting": "[1]", "value": "~4", "unit": "times"}, {"measurement": "fold stronger EC50 than for IL-6", "setting": "[2]", "value": "~3.5", "unit": "times"}, {"measurement": "EC50", "setting": "recombinant human IL-6 [3]", "value": 0.0153, "unit": "µg/mL"}, {"measurement": "EC50", "setting": "[4]", "value": 0.0043, "unit": "µg/mL"}, {"measurement": "binding result", "setting": "[5]", "value": "no binding (tested: 10 µg/ml)"}, {"measurement": "Kd", "setting": "recombinant human IL-6 [6]", "value": 1.13, "unit": "nM"}, {"measurement": "koff", "setting": "recombinant human IL-6 [6]", "value": 0.000665, "unit": "s⁻¹"}, {"measurement": "kon", "setting": "recombinant human IL-6 [6]", "value": 605000, "unit": "M⁻¹ s⁻¹"}, {"measurement": "Kd", "setting": "[7]", "value": 0.286, "unit": "nM"}, {"measurement": "koff", "setting": "[7]", "value": 0.000144, "unit": "s⁻¹"}, {"measurement": "kon", "setting": "[7]", "value": 498000, "unit": "M⁻¹ s⁻¹"}, {"measurement": "binding result", "setting": "[8]", "value": "no binding (tested: 10 µg/ml)"}, {"measurement": "EC50 (read off the curve)", "setting": "[9]", "value": "~0.6", "unit": "µg/mL"}]}
